The source of these data is patent publication US20230382992A1 (Bristol-Myers Squibb, published 2023).

The target of the test is CD64 (UniProt P12314 16-288, limits assumed). The experiment in a line: assay not described.
CD64, sequence (P12314 16-288 limits assumed): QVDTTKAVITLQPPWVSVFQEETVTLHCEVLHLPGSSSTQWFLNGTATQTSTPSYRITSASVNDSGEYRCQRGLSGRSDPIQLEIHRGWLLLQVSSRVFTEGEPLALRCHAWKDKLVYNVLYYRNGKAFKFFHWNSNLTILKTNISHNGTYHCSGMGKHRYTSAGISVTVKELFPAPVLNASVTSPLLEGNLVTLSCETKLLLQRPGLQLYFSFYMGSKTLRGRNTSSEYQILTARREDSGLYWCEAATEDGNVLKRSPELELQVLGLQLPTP

B1: TIM3.18.IgG1.3 (antibody)
heavy: QLQLQESGPGLVKPSETLSLTCTVSGGSISSRSYYWGWIRQPPGKGLEWIGSIYYSGFTYYQPSLKSRVTISVDTSKNQFSLKLSSVTAADTAVYYCATGGPYGDYAHWFEPWGQGTLVTVSSASTKGPSVFPLAPSSKSTSGGTAALGCLVKDYFPEPVTVSWNSGALTSGVHTFPAVLQSSGLYSLSSVVTVPSSSLGTQTYICNVNHKPSNTKVDKRVEPKSCDKTHTCPPCPAPEAEGAPSVFLFPPKPKDTLMISRTPEVTCVVVDVSHEDPEVKFNWYVDGVEVHNAKTKPREEQYNSTYRVVSVLTVLHQDWLNGKEYKCKVSNKALPAPIEKTISKAKGQPREPQVYTLPPSREEMTKNQVSLTCLVKGFYPSDIAVEWESNGQPENNYKTTPPVLDSDGSFFLYSKLTVDKSRWQQGNVFSCSVMHEALHNHYTQKSLSLSPGK
light: not shown
notes: Effectorless IgG1.3f (L234A, L235E, G237A); It was radioiodinated for the Scatchard assays; also called TIM3.18 (13A3) IgG1.3f (N60Q/D101E)
B1: the binding result is reported as “no binding”.
